# Reference: US20250320465A1 (FLAGSHIP PIONEERING INNOVATIONS V, published 2025)
# B1: Ring10-ORF1delCterm Helix (Ring10 ORF1 with a deletion of the C-terminus amino acids 610-672) VLP from Expi293 cells (other)
# chain: MPWWYRRRSYNPWRRRNWFRRPRKTIYRRYRRRRRWVRRKPFYKRKIKRLNIVEWQPKSIRKCRIKGMLCLFQTTEDRLSYNFDMYEESIIPEKLPGGGGFSIKNISLYALYQEHIHAHNIFTHTNTDRPLARYTGCSLKFYQSKDIDYVVTYSTSLPLRSSMGMYNSMQPSIHLMQQNKLIVPSKQTQKRRKPYIKKHISPPTQMKSQWYFQHNIANIPLLMIRTTALTLDNYYIGSRQLSTNVTIHTLNTTYIQNRDWGDRNKTYYCQTLGTQRYFLYGTHSTAQNINDIKLQELIPLTNTQDYVQGFDWTEKDKHNITTYKEFLTKGAGNPFHAEWITAQNPVIHTANSPTQIEQIYTASTTTFQNKKLTDLPTPGYIFITPTVSLRYNPYKDLAERNKCYFVRSKINAHGWDPEQHQELINSDLPQWLLLFGYPDYIKRTQNFALVDTNYILVDHCPYTNPEKTPFIPLSTSFIEGRSPYSPSDTHEPDEEDQNRWYPCYQYQQESINSICLSGPGTPKIPKGITAEAKVKYSFNFKWGGDLPPMSTITNPTDQPTYVVPNNFNETTSLQNPTTRPEHFLYSFDERRGQLTEKATKRLLKDWETK
# notes: also called Ring10-ORF1 delCterm-Helix (Δ610-672) (7052)
# Molecular target: the molecule itself
# Test: structure of the VLP (self-assembly)
protein,measurement,value
B1,binding result,binds
